Experimental data: article PMC6432644

Biological target: Hsp90AA1-MC, HA-tagged
Assay: native gel or EMSA

**Q.** For “Hsp90AA1-MC, HA-tagged (domain or fragment)”, which stoichiometry N is on record?
**A.** The stoichiometry N was 2.
